The results in this text go back to patent US11653679B2, “High-purity steviol glycosides” (PureCircle Sdn Bhd, priority 2014, dated 2023).

The labels stand for the following.
B1: UGT76G1var56: UGT76G1 variant, mutations L246F_A352G_S357N_Q432E (protein, UniProt Q6VAB4 1-458, looked up, variant L246F A352G S357N Q432E)
UDP-glycosyltransferase 76G1: MENKTETTVRRRRRIILFPVPFQGHINPILQLANVLYSKGFSITIFHTNFNKPKTSNYPHFTFRFILDNDPQDERISNLPTHGPLAGMRIPIINEHGADELRRELELLMLASEEDEEVSCLITDALWYFAQSVADSLNLRRLVLMTSSLFNFHAHVSLPQFDELGYLDPDDKTRLEEQASGFPMLKVKDIKSAYSNWQILKEILGKMIKQTKASSGVIWNSFKELEESELETVIREIPAPSFLIPFPKHLTASSSSLLDHDRTVFQWLDQQPPSSVLYVSFGSTSEVDEKDFLEIARGLVDSKQSFLWVVRPGFVKGSTWVEPLPDGFLGERGRIVKWVPQQEVLAHGAIGGFWTHNGWNSTLESVCEGVPMIFSDFGLDQPLNARYMSDVLKVGVYLENGWERGEIANAIRRVMVDEEGEYIRQNARVLKEKADVSLMKGGSSYESLESLVSYISSL
B2: UGT76G1var62: UGT76G1 variant, mutations L243P_P272A_V394I_V396F (protein, UniProt Q6VAB4 1-458, looked up, variant L243P P272A V394I V396F)
UDP-glycosyltransferase 76G1: MENKTETTVRRRRRIILFPVPFQGHINPILQLANVLYSKGFSITIFHTNFNKPKTSNYPHFTFRFILDNDPQDERISNLPTHGPLAGMRIPIINEHGADELRRELELLMLASEEDEEVSCLITDALWYFAQSVADSLNLRRLVLMTSSLFNFHAHVSLPQFDELGYLDPDDKTRLEEQASGFPMLKVKDIKSAYSNWQILKEILGKMIKQTKASSGVIWNSFKELEESELETVIREIPAPSFPIPLPKHLTASSSSLLDHDRTVFQWLDQQAPSSVLYVSFGSTSEVDEKDFLEIARGLVDSKQSFLWVVRPGFVKGSTWVEPLPDGFLGERGRIVKWVPQQEVLAHGAIGAFWTHSGWNSTLESVCEGVPMIFSDFGLDQPLNARYMSDVLKIGFYLENGWERGEIANAIRRVMVDEEGEYIRQNARVLKQKADVSLMKGGSSYESLESLVSYISSL
B3: UGT76G1var57: UGT76G1 variant, mutations S241I_T263S_L379G_A385T (protein, UniProt Q6VAB4 1-458, looked up, variant S241I T263S L379G A385T)
UDP-glycosyltransferase 76G1: MENKTETTVRRRRRIILFPVPFQGHINPILQLANVLYSKGFSITIFHTNFNKPKTSNYPHFTFRFILDNDPQDERISNLPTHGPLAGMRIPIINEHGADELRRELELLMLASEEDEEVSCLITDALWYFAQSVADSLNLRRLVLMTSSLFNFHAHVSLPQFDELGYLDPDDKTRLEEQASGFPMLKVKDIKSAYSNWQILKEILGKMIKQTKASSGVIWNSFKELEESELETVIREIPAPIFLIPLPKHLTASSSSLLDHDRSVFQWLDQQPPSSVLYVSFGSTSEVDEKDFLEIARGLVDSKQSFLWVVRPGFVKGSTWVEPLPDGFLGERGRIVKWVPQQEVLAHGAIGAFWTHSGWNSTLESVCEGVPMIFSDFGGDQPLNTRYMSDVLKVGVYLENGWERGEIANAIRRVMVDEEGEYIRQNARVLKQKADVSLMKGGSSYESLESLVSYISSL
B4: UGT76G1var60: UGT76G1 variant, mutations E231A_L243A_V279I_S357N (protein, UniProt Q6VAB4 1-458, looked up, variant E231A L243A V279I S357N)
UDP-glycosyltransferase 76G1: MENKTETTVRRRRRIILFPVPFQGHINPILQLANVLYSKGFSITIFHTNFNKPKTSNYPHFTFRFILDNDPQDERISNLPTHGPLAGMRIPIINEHGADELRRELELLMLASEEDEEVSCLITDALWYFAQSVADSLNLRRLVLMTSSLFNFHAHVSLPQFDELGYLDPDDKTRLEEQASGFPMLKVKDIKSAYSNWQILKEILGKMIKQTKASSGVIWNSFKELEESELATVIREIPAPSFAIPLPKHLTASSSSLLDHDRTVFQWLDQQPPSSVLYISFGSTSEVDEKDFLEIARGLVDSKQSFLWVVRPGFVKGSTWVEPLPDGFLGERGRIVKWVPQQEVLAHGAIGAFWTHNGWNSTLESVCEGVPMIFSDFGLDQPLNARYMSDVLKVGVYLENGWERGEIANAIRRVMVDEEGEYIRQNARVLKQKADVSLMKGGSSYESLESLVSYISSL
B5: UGT76G1var61: UGT76G1 variant, mutations I43V_F265I_Q266S_L379A (protein, UniProt Q6VAB4 1-458, looked up, variant I43V F265I Q266S L379A)
UDP-glycosyltransferase 76G1: MENKTETTVRRRRRIILFPVPFQGHINPILQLANVLYSKGFSVTIFHTNFNKPKTSNYPHFTFRFILDNDPQDERISNLPTHGPLAGMRIPIINEHGADELRRELELLMLASEEDEEVSCLITDALWYFAQSVADSLNLRRLVLMTSSLFNFHAHVSLPQFDELGYLDPDDKTRLEEQASGFPMLKVKDIKSAYSNWQILKEILGKMIKQTKASSGVIWNSFKELEESELETVIREIPAPSFLIPLPKHLTASSSSLLDHDRTVISWLDQQPPSSVLYVSFGSTSEVDEKDFLEIARGLVDSKQSFLWVVRPGFVKGSTWVEPLPDGFLGERGRIVKWVPQQEVLAHGAIGAFWTHSGWNSTLESVCEGVPMIFSDFGADQPLNARYMSDVLKVGVYLENGWERGEIANAIRRVMVDEEGEYIRQNARVLKQKADVSLMKGGSSYESLESLVSYISSL
B6: UGT76G1var58: UGT76G1 variant, mutations S357C_S375M_N409R_Q425E (protein, UniProt Q6VAB4 1-458, looked up, variant S357C S375M N409R Q425E)
UDP-glycosyltransferase 76G1: MENKTETTVRRRRRIILFPVPFQGHINPILQLANVLYSKGFSITIFHTNFNKPKTSNYPHFTFRFILDNDPQDERISNLPTHGPLAGMRIPIINEHGADELRRELELLMLASEEDEEVSCLITDALWYFAQSVADSLNLRRLVLMTSSLFNFHAHVSLPQFDELGYLDPDDKTRLEEQASGFPMLKVKDIKSAYSNWQILKEILGKMIKQTKASSGVIWNSFKELEESELETVIREIPAPSFLIPLPKHLTASSSSLLDHDRTVFQWLDQQPPSSVLYVSFGSTSEVDEKDFLEIARGLVDSKQSFLWVVRPGFVKGSTWVEPLPDGFLGERGRIVKWVPQQEVLAHGAIGAFWTHCGWNSTLESVCEGVPMIFMDFGLDQPLNARYMSDVLKVGVYLENGWERGEIARAIRRVMVDEEGEYIRENARVLKQKADVSLMKGGSSYESLESLVSYISSL
B7: UGT76G1var63: UGT76G1 variant, mutations F314S_R334H_Q342K_L379G (protein, UniProt Q6VAB4 1-458, looked up, variant F314S R334H Q342K L379G)
UDP-glycosyltransferase 76G1: MENKTETTVRRRRRIILFPVPFQGHINPILQLANVLYSKGFSITIFHTNFNKPKTSNYPHFTFRFILDNDPQDERISNLPTHGPLAGMRIPIINEHGADELRRELELLMLASEEDEEVSCLITDALWYFAQSVADSLNLRRLVLMTSSLFNFHAHVSLPQFDELGYLDPDDKTRLEEQASGFPMLKVKDIKSAYSNWQILKEILGKMIKQTKASSGVIWNSFKELEESELETVIREIPAPSFLIPLPKHLTASSSSLLDHDRTVFQWLDQQPPSSVLYVSFGSTSEVDEKDFLEIARGLVDSKQSFLWVVRPGSVKGSTWVEPLPDGFLGERGHIVKWVPQKEVLAHGAIGAFWTHSGWNSTLESVCEGVPMIFSDFGGDQPLNARYMSDVLKVGVYLENGWERGEIANAIRRVMVDEEGEYIRQNARVLKQKADVSLMKGGSSYESLESLVSYISSL
B8: UGT76G1var59: UGT76G1 variant, mutations I335V_K393G_V394I_Y397Q (protein, UniProt Q6VAB4 1-458, looked up, variant I335V K393G V394I Y397Q)
UDP-glycosyltransferase 76G1: MENKTETTVRRRRRIILFPVPFQGHINPILQLANVLYSKGFSITIFHTNFNKPKTSNYPHFTFRFILDNDPQDERISNLPTHGPLAGMRIPIINEHGADELRRELELLMLASEEDEEVSCLITDALWYFAQSVADSLNLRRLVLMTSSLFNFHAHVSLPQFDELGYLDPDDKTRLEEQASGFPMLKVKDIKSAYSNWQILKEILGKMIKQTKASSGVIWNSFKELEESELETVIREIPAPSFLIPLPKHLTASSSSLLDHDRTVFQWLDQQPPSSVLYVSFGSTSEVDEKDFLEIARGLVDSKQSFLWVVRPGFVKGSTWVEPLPDGFLGERGRVVKWVPQQEVLAHGAIGAFWTHSGWNSTLESVCEGVPMIFSDFGLDQPLNARYMSDVLGIGVQLENGWERGEIANAIRRVMVDEEGEYIRQNARVLKQKADVSLMKGGSSYESLESLVSYISSL
B9: UGT76G1var2: UGT76G1 variant, mutations S274G_T284I_L379G (protein, UniProt Q6VAB4 1-458, looked up, variant S274G T284I L379G)
UDP-glycosyltransferase 76G1: MENKTETTVRRRRRIILFPVPFQGHINPILQLANVLYSKGFSITIFHTNFNKPKTSNYPHFTFRFILDNDPQDERISNLPTHGPLAGMRIPIINEHGADELRRELELLMLASEEDEEVSCLITDALWYFAQSVADSLNLRRLVLMTSSLFNFHAHVSLPQFDELGYLDPDDKTRLEEQASGFPMLKVKDIKSAYSNWQILKEILGKMIKQTKASSGVIWNSFKELEESELETVIREIPAPSFLIPLPKHLTASSSSLLDHDRTVFQWLDQQPPGSVLYVSFGSISEVDEKDFLEIARGLVDSKQSFLWVVRPGFVKGSTWVEPLPDGFLGERGRIVKWVPQQEVLAHGAIGAFWTHSGWNSTLESVCEGVPMIFSDFGGDQPLNARYMSDVLKVGVYLENGWERGEIANAIRRVMVDEEGEYIRQNARVLKQKADVSLMKGGSSYESLESLVSYISSL
B10: UGT76G1var64: UGT76G1 variant, mutations F22L_A239I_R334H_I407V (protein, UniProt Q6VAB4 1-458, looked up, variant F22L A239I R334H I407V)
UDP-glycosyltransferase 76G1: MENKTETTVRRRRRIILFPVPLQGHINPILQLANVLYSKGFSITIFHTNFNKPKTSNYPHFTFRFILDNDPQDERISNLPTHGPLAGMRIPIINEHGADELRRELELLMLASEEDEEVSCLITDALWYFAQSVADSLNLRRLVLMTSSLFNFHAHVSLPQFDELGYLDPDDKTRLEEQASGFPMLKVKDIKSAYSNWQILKEILGKMIKQTKASSGVIWNSFKELEESELETVIREIPIPSFLIPLPKHLTASSSSLLDHDRTVFQWLDQQPPSSVLYVSFGSTSEVDEKDFLEIARGLVDSKQSFLWVVRPGFVKGSTWVEPLPDGFLGERGHIVKWVPQQEVLAHGAIGAFWTHSGWNSTLESVCEGVPMIFSDFGLDQPLNARYMSDVLKVGVYLENGWERGEVANAIRRVMVDEEGEYIRQNARVLKQKADVSLMKGGSSYESLESLVSYISSL

This data set can be described thus: Directed evolution of UGT76G1, Rebaudioside D to Rebaudioside M, round 1 (Example 26). The class given is biochemical. Particulars: 100 μL fresh lysate, 0.5 mM Rebaudioside D, 30° C., pH 7.2. On the procedure: Lysis was performed by addition of Bugbuster® Master mix (Novagen®) to the thawed cells and the lysate was recovered by centrifugation. Activity tests were performed with 100 μL of fresh lysate that was added to a solution of Rebaudioside D (final concentration 0.5 mM), MgCl2 (final concentration 3 mM) and UDP-Glucose (final concentration 2.5 mM) in 50 mM phosphate buffer pH 7.2.
The reaction was allowed to run at 30° C. and samples were taken after 2, 4, 7 and 24 h. to determine conversion and initial rate by HPLC (CAD detection) using the analytical method that was described above for the transformation of Rebaudioside D to Rebaudioside M. The results are depicted in the following table.
Regarding B1, the “conversion Reb D to Reb M after 24 h” value is listed as 0.4% and the initial rate is recorded as 4.1E+04 Reb M area/min.

Regarding B2, the “conversion Reb D to Reb M after 24 h” value was found to be 0.1% and the initial rate is given as 3.4E+04 Reb M area/min.

For B3, the “conversion Reb D to Reb M after 24 h” value turned out to be 0.8% and the initial rate was 1.5E+05 Reb M area/min.

For the molecule B4, the “conversion Reb D to Reb M after 24 h” value stood at 0.5% and the initial rate is recorded as 9.5E+04 Reb M area/min.

Turning to B5, the “conversion Reb D to Reb M after 24 h” value is reported as 6.4% and the initial rate amounted to 2.0E+06 Reb M area/min.

Take B6: the “conversion Reb D to Reb M after 24 h” value amounted to 7.5% and the initial rate is on record as 2.2E+06 Reb M area/min.

Turning to B7, the “conversion Reb D to Reb M after 24 h” value amounted to 3.4% and the initial rate came out at 1.2E+06 Reb M area/min.

As to B8, the “conversion Reb D to Reb M after 24 h” value is 33.0% and the initial rate was determined as 2.7E+07 Reb M area/min.

Consider B9, for which the initial rate is on record as 4.7E+07 Reb M area/min.

With B10, the “conversion Reb D to Reb M after 24 h” value stood at 0.3% and the initial rate worked out at 3.1E+04 Reb M area/min.
